Legend:
[1] = target: T1, recombinant human MSLN (purchased from Peprotech) (human, UniProt Q13421 296-598, limits assumed); assay: SPR (Biacore T200), human MSLN; which of the two formats (MSLN immobilized / antibody captured) not given
T1 construct: Bought protein; also called recombinant human mesothelin

[2] = target: T2, plasma-membranous human MSLN on cell lines (H226, HPAC, H292, OVCAR-3, MeT-5A) (human, UniProt Q13421 296-598); assay: flow cytometry on Met-5A cells, protein L-PE, 4PL fit
T2 construct: whole, on cells; also called human MSLN on H226 cells; mesothelin on target cells

[3] = target: T2, plasma-membranous human MSLN on cell …; assay: flow cytometry on OVCAR-3 cells, protein L-PE, 4PL fit
[4] = target: human serum albumin (hSA, Sigma-Aldrich A3782) (human, UniProt P02768 25-609); assay: SPR, hSA amine-coupled to CM5, antibody injected, pH 5.5, 1:1 Langmuir
[5] = target: T3, human recombinant CD3ε protein (Sino Biological) (human, UniProt P07766 23-126); assay: SPR, CD3ε amine-coupled to CM5, antibody injected
T3 construct: Bought protein; also called recombinant human CD3ε; human CD3ε

[6] = target: T2, plasma-membranous human MSLN on cell …; assay: flow cytometry on H226 cells, protein L-PE, 4PL fit
[7] = target: T2, plasma-membranous human MSLN on cell …; assay: cELISA on H226 cells, HRP-Protein L
[8] = target: biotinylated MSLN (human MSLN in the MSLN/MUC16 competition ELISA) (human, UniProt Q13421 296-598, limits assumed, biotinylated); assay: competition ELISA, scFv titrated with biotinylated MSLN; competitor coated MUC16
[9] = target: T1, recombinant human MSLN (purchased from …); assay: SPR, MSLN immobilized on CM5, scFv as analyte, 1:1 Langmuir
[10] = target: T2, plasma-membranous human MSLN on cell …; assay: cell-based or functional assay
[11] = target: soluble mesothelin (sMSLN); assay: cell-based or functional assay

Row | EC50 [2] | max. binding (MFI) [2] | EC50 [3] | max. binding (MFI) [3] | Kd [4] | koff [4] | kon [4] | Kd [5] | EC50 [6] | max. binding (MFI) [6] | EC50 [7] | rel. EC50 (EC50, Amatuximab/EC50, scFv) [7] | rel. Maximum binding (OD450-690 nm, scFv/OD450-690 nm, Amatuximab) [7] | IC50 [8] | Maximum inhibition at highest sample conc. [8] | rel. IC50 (IC50, Amatuximab/IC50, scFv) [8] | Kd [9] | koff [9] | kon [9] | Binder | also measured
1 | 0.0877 nM | 12000 MFI | 5.55 nM | 148000 MFI | 6.45 nM | 0.00149 s⁻¹ | 231000 M⁻¹ s⁻¹ | 6.45 nM | 0.447 nM | 609000 MFI |  |  |  |  |  |  |  |  |  | PRO2562 (MATCH4) (other, Heterodimer) chain 1: ALQMTQSPSSLSARVGDRVTIKCQASQSISNYLAWYQQKPGKPPKFLIYDASDLASGVPSRFSGSGSGRDFTLTISSLQPEDFATYYCQQVYDSNNVENVFGCGTKVTVLGGGGGSGGGGSGGGGSGGGGSQSQLVESGGGLVQPGGSLRLSCAVSGFSLSSYAMGWVRQAPGKCLEYIGYISKIGTTYYASWAKGRFTISKDNSKNTVYLQMNSLRAEDTAVYFCARGSSSGGYLDDGFDPWGQGTLVTVSSGGGGSGGGGSEVQLVESGGGLVQPGGSLRLSCAASGFSLSSYDMSWVRQAPGKGLAWIGASYASGPTYYASWAKGRFTISRDNSKNTVYLQMCSLRAEDTATYFCARGGWTGTSHSNIWGQGTLVTVSSGGGSGGGSGGGSGEVQLVESGGGLVQPGGSLRLSCAASGFSLSSYAMNWVRQAPGKCLEWIGHINAGDIAYYATWAKGRFTISRDNSKNTVYLQMNSLRAEDTAVYFCARGAGGFSTGPFKLWGQGTLVTVSS chain 2: ALQMTQSPSSLSARVGDRVTIKCQASQSISNYLAWYQQKPGKPPKFLIYDASDLASGVPSRFSGSGSGRDFTLTISSLQPEDFATYYCQQVYDSNNVENVFGCGTKVTVLGGGGGSGGGGSGGGGSGGGGSQSQLVESGGGLVQPGGSLRLSCAVSGFSLSSYAMGWVRQAPGKCLEYIGYISKIGTTYYASWAKGRFTISKDNSKNTVYLQMNSLRAEDTAVYFCARGSSSGGYLDDGFDPWGQGTLVTVSSGGGGSGGGGSAFELTQSPSSLSASVGDRVTITCQASESINSRLAWYQQKPGQPPKLLIYDASDLTSGVPSRFSGSGSGTDFTLTISCLQPEDFATYYCQGYGGSSTTTFGCGTKLTVLGGGSGGSGGSGGSGDIQMTQSPSSLSASVGDRVTITCQSSQSVFSNNYLAWFQQKPGQSPKRLIYSASTLASGVPSRFSGSGSGTDFTLTISSLQPEDFATYYCLGSYACSSADCYVFGTGTKVTVLG | Kd [1]: 1.39 nM; koff [1]: 0.000571 s⁻¹; kon [1]: 410000 M⁻¹ s⁻¹
2 |  |  |  |  |  |  |  |  |  |  | 0.29 nM | 0.52 ratio | 0.61 ratio | 0.05 nM | 99.3% | 0.29 ratio | 0.177 nM | 0.00013 s⁻¹ | 735000 M⁻¹ s⁻¹ | anti-MSLN scFv PRO1922 (scFv, also called 54-21-H03-sc01) scFv: DIQMTQSPSSLSASVGDRVTITCQASESIYSSLAWYQQKPGKAPKLLIYLASTLASGVPSRFSGSGSGTDFTLTISSLQPEDFATYYCQSTDYTTSTHRNSFGTGTKVTVLGGGGGSGGGGSGGGGSGGGGSEVQLVESGGGLVQPGGSLRLSCAASGFSFSTTYYMCWVRQAPGKGLEWIGCTNTASSVRTYYATWAKGRFTISRDNSKNTVYLQMNSLRAEDTAVYYCARDMGFADYALNLWGQGTLVTVSS | 
3 | 0.157 nM | 14500 MFI | 10.7 nM | 198000 MFI | 5.71 nM | 0.0016 s⁻¹ | 280000 M⁻¹ s⁻¹ | 5.71 nM | 1.08 nM | 686000 MFI |  |  |  |  |  |  |  |  |  | PRO2660 (MATCH4) (other, Heterodimer) chain 1: DIQMTQSPSSLSASVGDRVTITCQASESIYSSLAWYQQKPGKAPKLLIYLASTLASGVPSRFSGSGSGTDFTLTISSLQPEDFATYYCQSTDYTTSTHRNSFGTGTKVTVLGGGGGSGGGGSGGGGSGGGGSEVQLVESGGGLVQPGGSLRLSCAASGFSFSTTYYMCWVRQAPGKGLEWIGCTNTASSVRTYYATWAKGRFTISRDNSKNTVYLQMNSLRAEDTAVYYCARDMGFADYALNLWGQGTLVTVSSGGGGSGGGGSEVQLVESGGGLVQPGGSLRLSCAASGFSLSSYDMSWVRQAPGKGLAWIGASYASGPTYYASWAKGRFTISRDNSKNTVYLQMNSLRAEDTATYFCARGGWTGTSHSNIWGQGTLVTVSSGGGSGGGSGGGSGEVQLVESGGGLVQPGGSLRLSCAASGFSLSSYAMNWVRQAPGKCLEWIGHINAGDIAYYATWAKGRFTISRDNSKNTVYLQMNSLRAEDTAVYFCARGAGGFSTGPFKLWGQGTLVTVSS chain 2: DIQMTQSPSSLSASVGDRVTITCQASESIYSSLAWYQQKPGKAPKLLIYLASTLASGVPSRFSGSGSGTDFTLTISSLQPEDFATYYCQSTDYTTSTHRNSFGTGTKVTVLGGGGGSGGGGSGGGGSGGGGSEVQLVESGGGLVQPGGSLRLSCAASGFSFSTTYYMCWVRQAPGKGLEWIGCTNTASSVRTYYATWAKGRFTISRDNSKNTVYLQMNSLRAEDTAVYYCARDMGFADYALNLWGQGTLVTVSSGGGGSGGGGSAFELTQSPSSLSASVGDRVTITCQASESINSRLAWYQQKPGQPPKLLIYDASDLTSGVPSRFSGSGSGTDFTLTISSLQPEDFATYYCQGYGGSSTTTFGCGTKLTVLGGGSGGSDIQMTQSPSSLSASVGDRVTITCQSSQSVFSNNYLAWFQQKPGQSPKRLIYSASTLASGVPSRFSGSGSGTDFTLTISSLQPEDFATYYCLGSYACSSADCYVFGTGTKVTVLG | Fold-diff Window (mean Met-5A EC50 / mean H226 EC50) [10]: 1.7 fold; average mean H226 EC50, cell killing (LDH release) [10]: 0.0285 nM; average mean Met-5A EC50, cell killing (LDH release) [10]: 0.0485 nM; Delta 0-50 ng/mL sMSLN (x-fold change in H226 killing potency) [11]: 12 fold; Delta 0-500 ng/mL sMSLN (x-fold change in H226 killing potency) [11]: 85.1 fold
4 |  |  |  |  |  |  |  |  |  |  | 3.05 nM | 0.026 ratio | 0.55 ratio |  |  |  | 0.322 nM | 0.000873 s⁻¹ | 2.72e+06 M⁻¹ s⁻¹ | anti-MSLN scFv PRO2306 (scFv, also called 54-32-A07-sc06; PRO1925-S14R-T87R-T22K) scFv: ALQMTQSPSSLSARVGDRVTIKCQASQSISNYLAWYQQKPGKPPKFLIYDASDLASGVPSRFSGSGSGRDFTLTISSLQPEDFATYYCQQVYDSNNVENVFGTGTKVTVLGGGGGSGGGGSGGGGSGGGGSQSQLVESGGGLVQPGGSLRLSCAVSGFSLSSYAMGWVRQAPGKGLEYIGYISKIGTTYYASWAKGRFTISKDNSKNTVYLQMNSLRAEDTAVYFCARGSSSGGYLDDGFDPWGQGTLVTVSS | 
5 |  |  |  |  |  |  |  |  |  |  | 1.01 nM | 0.11 ratio | 0.58 ratio | 0.14 nM | 99.2% | 0.11 ratio | 0.488 nM | 0.000794 s⁻¹ | 1.63e+06 M⁻¹ s⁻¹ | anti-MSLN scFv PRO1925 (scFv, also called 54-32-A07-sc02) scFv: ALQMTQSPSSLSASVGDRVTITCQASQSISNYLAWYQQKPGKPPKFLIYDASDLASGVSSRFSGSGSGTDFTLTISSLQPEDFATYYCQQVYDSNNVENVFGTGTKVTVLGGGGGSGGGGSGGGGSGGGGSQSQLVESGGGLVQPGGSLRLSCAVSGFSLSSYAMGWVRQAPGKGLEYIGYISKIGTTYYASWAKGRFTISKDNSKNTVYLQMNSLRAEDTAVYFCARGSSSGGYLDDGFDPWGQGTLVTVSS | 
6 |  |  |  |  |  |  |  |  |  |  | 1.13 nM | 0.07 ratio | 0.78 ratio |  |  |  | 0.444 nM | 0.00138 s⁻¹ | 3.11e+06 M⁻¹ s⁻¹ | anti-MSLN scFv PRO2309 (scFv, VL/VH interdomain disulfide variant; also called 54-32-A07-sc09; PRO1925-S14R-T87R-T22K-DIS) scFv: ALQMTQSPSSLSARVGDRVTIKCQASQSISNYLAWYQQKPGKPPKFLIYDASDLASGVPSRFSGSGSGRDFTLTISSLQPEDFATYYCQQVYDSNNVENVFGCGTKVTVLGGGGGSGGGGSGGGGSGGGGSQSQLVESGGGLVQPGGSLRLSCAVSGFSLSSYAMGWVRQAPGKCLEYIGYISKIGTTYYASWAKGRFTISKDNSKNTVYLQMNSLRAEDTAVYFCARGSSSGGYLDDGFDPWGQGTLVTVSS | 

Reference: patent publication US20230203162A1 (NUMAB THERAPEUTICS, published 2023)
